Laboratory results from patent publication US6753151B1, “Interactions of Ku polypeptides and applications thereof” (Kudos Pharmaceuticals Limited, priority 1999, dated 2004).
Entries after “also recorded” stand apart in the source; their conditions may differ.

Assays:
purified DNA-PKcs = target: T1, purified DNA-PKcs (Homo sapiens, UniProt P78527); experiment: GST pull-down with purified DNA-PKcs; type: binding; details: for effect of DNA or EtBr on binding of purified DNA-PKcs: 20 ng/μl sonicated calf thymus DNA or 0.2 mg/ml EtBr; for salt dependence of interaction with homogeneous DNA-PKcs: 50 mM to 150 mM KCl; for interaction with purified DNA-PKcs: 120 mM KCl, silver-staining
T1 construct: The starting material for purification of DNA-PKcs was HeLa NE; host or cells: HeLa nuclear extract; purified in house over Q Sepharose, heparin agarose, phenyl Sepharose and Mono-S
T1 sequence (P78527 whole entry): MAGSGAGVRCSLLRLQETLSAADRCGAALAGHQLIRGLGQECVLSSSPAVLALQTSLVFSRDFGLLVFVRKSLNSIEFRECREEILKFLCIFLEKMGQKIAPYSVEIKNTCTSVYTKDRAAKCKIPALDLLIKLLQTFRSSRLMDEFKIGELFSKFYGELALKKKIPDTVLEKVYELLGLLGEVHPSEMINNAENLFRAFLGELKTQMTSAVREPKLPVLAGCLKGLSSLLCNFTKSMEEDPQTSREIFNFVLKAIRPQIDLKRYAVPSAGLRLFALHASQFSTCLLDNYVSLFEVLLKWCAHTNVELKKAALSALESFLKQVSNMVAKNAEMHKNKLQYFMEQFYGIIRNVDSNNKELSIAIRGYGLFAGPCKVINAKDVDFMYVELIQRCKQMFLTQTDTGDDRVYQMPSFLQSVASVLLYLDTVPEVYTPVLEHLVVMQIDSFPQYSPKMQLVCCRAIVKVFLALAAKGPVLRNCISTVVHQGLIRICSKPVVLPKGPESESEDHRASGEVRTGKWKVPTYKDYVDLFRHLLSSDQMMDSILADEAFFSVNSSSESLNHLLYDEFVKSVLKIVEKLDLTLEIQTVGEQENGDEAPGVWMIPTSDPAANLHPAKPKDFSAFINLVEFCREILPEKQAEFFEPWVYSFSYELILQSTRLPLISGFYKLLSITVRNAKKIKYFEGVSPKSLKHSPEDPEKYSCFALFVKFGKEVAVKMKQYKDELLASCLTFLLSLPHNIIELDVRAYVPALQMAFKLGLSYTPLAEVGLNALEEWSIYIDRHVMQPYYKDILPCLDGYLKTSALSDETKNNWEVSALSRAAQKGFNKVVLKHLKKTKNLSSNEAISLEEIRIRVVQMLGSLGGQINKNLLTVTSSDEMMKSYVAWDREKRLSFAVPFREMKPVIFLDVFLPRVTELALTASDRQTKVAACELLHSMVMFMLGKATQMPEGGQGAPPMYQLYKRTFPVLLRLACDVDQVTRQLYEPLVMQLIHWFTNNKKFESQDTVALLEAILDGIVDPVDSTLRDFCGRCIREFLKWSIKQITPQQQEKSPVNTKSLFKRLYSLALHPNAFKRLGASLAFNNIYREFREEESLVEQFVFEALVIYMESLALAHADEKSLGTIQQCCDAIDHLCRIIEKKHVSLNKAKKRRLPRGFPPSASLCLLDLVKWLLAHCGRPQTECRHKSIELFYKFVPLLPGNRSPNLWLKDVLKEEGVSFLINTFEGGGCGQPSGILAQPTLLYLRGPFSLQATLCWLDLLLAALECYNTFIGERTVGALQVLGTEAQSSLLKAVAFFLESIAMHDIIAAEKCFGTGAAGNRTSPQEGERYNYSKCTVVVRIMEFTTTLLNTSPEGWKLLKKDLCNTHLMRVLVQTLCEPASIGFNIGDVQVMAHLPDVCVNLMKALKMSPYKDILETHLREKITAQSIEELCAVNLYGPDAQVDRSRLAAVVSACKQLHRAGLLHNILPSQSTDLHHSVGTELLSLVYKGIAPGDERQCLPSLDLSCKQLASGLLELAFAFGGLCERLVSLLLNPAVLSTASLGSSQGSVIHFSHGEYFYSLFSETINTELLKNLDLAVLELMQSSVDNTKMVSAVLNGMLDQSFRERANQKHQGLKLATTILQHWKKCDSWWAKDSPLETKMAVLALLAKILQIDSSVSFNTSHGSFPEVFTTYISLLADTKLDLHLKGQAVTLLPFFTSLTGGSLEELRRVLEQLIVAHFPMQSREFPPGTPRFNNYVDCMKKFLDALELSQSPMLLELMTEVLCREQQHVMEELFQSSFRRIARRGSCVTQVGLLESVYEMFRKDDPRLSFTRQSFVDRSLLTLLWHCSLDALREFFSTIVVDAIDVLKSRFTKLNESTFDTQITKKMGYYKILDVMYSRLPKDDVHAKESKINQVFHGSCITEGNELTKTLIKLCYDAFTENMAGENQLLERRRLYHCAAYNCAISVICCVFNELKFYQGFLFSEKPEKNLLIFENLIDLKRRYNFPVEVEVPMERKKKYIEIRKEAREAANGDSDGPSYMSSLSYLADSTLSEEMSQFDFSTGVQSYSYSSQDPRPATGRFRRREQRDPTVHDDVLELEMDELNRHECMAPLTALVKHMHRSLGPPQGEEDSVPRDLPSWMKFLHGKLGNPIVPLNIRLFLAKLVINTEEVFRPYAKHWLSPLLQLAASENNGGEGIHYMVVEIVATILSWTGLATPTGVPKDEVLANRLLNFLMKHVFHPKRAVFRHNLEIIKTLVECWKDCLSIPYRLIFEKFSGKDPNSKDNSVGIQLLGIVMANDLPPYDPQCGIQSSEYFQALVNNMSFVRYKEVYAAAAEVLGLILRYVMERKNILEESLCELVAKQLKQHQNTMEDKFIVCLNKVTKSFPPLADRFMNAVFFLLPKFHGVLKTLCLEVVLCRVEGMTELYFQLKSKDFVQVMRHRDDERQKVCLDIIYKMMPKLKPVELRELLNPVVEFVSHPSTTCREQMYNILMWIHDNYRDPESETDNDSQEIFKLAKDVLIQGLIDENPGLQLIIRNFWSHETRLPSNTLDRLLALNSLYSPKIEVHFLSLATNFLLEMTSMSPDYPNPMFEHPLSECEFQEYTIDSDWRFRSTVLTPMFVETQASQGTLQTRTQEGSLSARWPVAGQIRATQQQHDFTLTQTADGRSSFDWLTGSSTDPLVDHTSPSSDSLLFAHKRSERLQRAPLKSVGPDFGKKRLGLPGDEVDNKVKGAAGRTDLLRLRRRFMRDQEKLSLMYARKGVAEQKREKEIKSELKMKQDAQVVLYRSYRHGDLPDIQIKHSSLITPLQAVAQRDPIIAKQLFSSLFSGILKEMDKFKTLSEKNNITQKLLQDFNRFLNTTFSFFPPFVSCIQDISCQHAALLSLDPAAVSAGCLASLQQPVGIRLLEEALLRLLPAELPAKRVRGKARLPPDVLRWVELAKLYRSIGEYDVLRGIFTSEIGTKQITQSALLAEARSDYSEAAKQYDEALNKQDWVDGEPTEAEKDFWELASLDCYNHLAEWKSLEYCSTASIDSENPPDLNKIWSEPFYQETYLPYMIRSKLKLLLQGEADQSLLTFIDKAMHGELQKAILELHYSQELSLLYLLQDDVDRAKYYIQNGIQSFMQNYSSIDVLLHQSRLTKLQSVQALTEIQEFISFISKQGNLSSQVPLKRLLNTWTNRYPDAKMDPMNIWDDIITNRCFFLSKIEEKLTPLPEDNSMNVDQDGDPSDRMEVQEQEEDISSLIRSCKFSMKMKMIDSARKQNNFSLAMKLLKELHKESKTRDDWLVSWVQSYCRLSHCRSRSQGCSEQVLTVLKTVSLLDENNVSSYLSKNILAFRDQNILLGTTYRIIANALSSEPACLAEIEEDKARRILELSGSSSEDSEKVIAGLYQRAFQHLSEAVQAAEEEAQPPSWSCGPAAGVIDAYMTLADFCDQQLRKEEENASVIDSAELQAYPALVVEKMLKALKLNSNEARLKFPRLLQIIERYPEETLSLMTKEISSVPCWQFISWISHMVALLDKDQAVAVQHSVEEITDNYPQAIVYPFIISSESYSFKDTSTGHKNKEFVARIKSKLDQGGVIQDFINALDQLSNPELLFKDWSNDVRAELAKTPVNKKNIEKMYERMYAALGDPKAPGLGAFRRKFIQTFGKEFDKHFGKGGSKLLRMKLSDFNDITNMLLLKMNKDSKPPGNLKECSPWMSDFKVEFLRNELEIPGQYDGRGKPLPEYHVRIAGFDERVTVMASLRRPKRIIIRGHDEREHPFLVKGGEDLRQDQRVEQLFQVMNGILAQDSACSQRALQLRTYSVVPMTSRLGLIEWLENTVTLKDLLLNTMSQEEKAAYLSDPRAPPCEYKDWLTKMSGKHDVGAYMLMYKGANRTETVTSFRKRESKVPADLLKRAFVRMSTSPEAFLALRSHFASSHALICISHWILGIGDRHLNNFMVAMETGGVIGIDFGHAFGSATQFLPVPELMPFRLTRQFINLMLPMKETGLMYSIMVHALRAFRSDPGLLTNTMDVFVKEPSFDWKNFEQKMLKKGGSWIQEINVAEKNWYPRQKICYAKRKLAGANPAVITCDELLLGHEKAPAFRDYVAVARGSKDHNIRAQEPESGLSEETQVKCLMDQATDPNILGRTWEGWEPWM
Experimental: (§1) GST-Ku70 or GST-Ku80 (0.5-2.0 μg), or deletion derivative thereof, bound to Glutathione agarose beads, was incubated with ˜100 μg (10 μl) of HeLa Cell nuclear extract (NE) and 80 μl of Z′ buffer (25 mM HEPES pH 6.7, 12.5 mM MgCl2, 1 mM dithiothreitol, 0.1% Nonidet P40 (BDH), 20% Glycerol) containing the specified concentration of KCl (for example, 50 mM Z′ contains 50 mM KCl in addition to the other buffer components). Binding reactions were incubated at 4° C. for 3-4 hours and the beads recovered by centrifugation and washed 7 times in 1 ml of Buffer X (25 mM HEPES pH 6.7, 2 mM MgCl2, 1 mM Dithiothreitol, 0.4% Nonidet P40) containing the specified concentration of KCl (for example, 120 mM Buffer X contains 120 mM KCl in addition to the other buffer components). Proteins retained on the beads after washing were eluted in SDS gel-loading buffer and half of the sample subjected to polyacrylamide gel eletrophoresis and silver staining. “Pulldown” assays from purified DNA-PKcs were done as above with 400 ng of purified DNA-PKcs substituted for HeLa NE.
The starting material for purification of DNA-PKcs was HeLa NE obtained from the Computer Cell Culture Centre, Mons, Belgium. All purification steps were performed in buffer D (20 mM HEPES pH 7.6, 2 mm MgCl2, 0.2 mM EDTA, 10% Glycerol) with a specified concentration of KCl (for example 50 mM Buffer D contains 50 mM KCl in addition to the other buffer components). In a representative purification, 35 ml of HeLa NE was cleared by centrifugation and diluted to a final concentration of 50 mM Buffer D, and protease inhibitors added (Boehringer). This was loaded onto a 60 ml column of Q Sepharose (Pharmacia) and eluted in a linear salt gradient of 50-500 mM Buffer D. Under these conditions the majority of DNA-PKcs and Ku were separated into two fractions peaking at approximately 200 mM Buffer D, and 450 mM Buffer D respectively. The DNA-PKcs fraction was adjusted to 100 mM KCl using 0 mM Buffer D (salt concentration was measured by conductivity) and applied to a 10 ml column of heparin agarose (Sigma). The column was developed with a linear gradient of 100-200 mM Buffer D. The peak DNA-PKcs fraction from the heparin column was adjusted to 0.5 M ammonium sulphate and applied to a 2.5 ml column of phenyl Sepharose (Pharmacia) equilibrated in, typically, 300 mM Buffer D containing 0.5 M ammonium sulphate. Under these conditions, 100% of DNA-PKcs is retained by the column, whilst the majority of contaminating Ku flows through (as judged by western blotting using antibodies specific to the Ku subunits). The column was then washed extensively in 0 mM Buffer D containing 0.5 M ammonium sulphate, and subsequently in 0 mM Buffer D containing 0.4 M ammonium sulphate, which removes most of the remaining Ku, before applying a linear gradient of 0.4-0 M ammonium sulphate in 0 mM Buffer D. Peak DNA-PKcs fractions were dialysed into 50 mM Buffer D, applied to a 1 ml Mono-S FPLC column (Pharmacia), and eluted in a linear gradient of 50-500 mM Buffer D. Peak fractions were dialysed into 50 mM Buffer D and stored at −80° C. prior to use. The resulting protein preparation contained a single abundant polypeptide corresponding to DNA-PKcs as judged by Coomassie staining, silver staining and western blotting, with a ladder of smaller DNA-PKcs breakdown products. […] To assess the levels of Ku contamination in the DNA-PKcs preparation we carried out quantitative western blotting using Ku-specific antibodies. In these western blots, an essentially homogeneous preparation of Ku was titrated against known amounts of our DNA-PKcs preparations.
GST-Ku70 or GST-Ku80 containing glutathione agarose beads were incubated with 0.4 μg of purified DNA-PKcs under conditions of 120 mM KCl. The beads were then washed and any proteins retained on the beads were detected by silver-staining.
A control binding reaction using beads containing GST alone was also carried out. […]

DNA-PKcs = DNA-PKcs (Homo sapiens, UniProt P78527); experiment: GST pull-down from HeLa cell nuclear extract; type: binding; design: incubated with ˜100 μg (10 μl) of HeLa Cell nuclear extract (NE); host or cells: HeLa cell nuclear extract; details: for effect of EtBr on interaction with DNA-PKcs in HeLa nuclear extract: EtBr 0.2 mg/ml; for proteins retrieved from crude HeLa nuclear extract: washed in buffer X containing 150 mM KCl, silver-staining
Chain of DNA-PKcs (P78527 whole entry): as above
Experimental: as §1
The inventors performed pull-down assays from HeLa cell nuclear extract using GST-Ku70 or GST-Ku80 bound to glutathione agarose beads. Thus, GST-Ku70 or GST-Ku80 protein was purified on glutathione agarose beads as described above, and the beads incubated with crude HeLa cell nuclear extract and washed extensively in buffer X containing 150 mM KCl. The bound proteins were then eluted in the presence of SDS, subjected to SDS-PAGE on a 6% polyacrylamide gel and detected by silver-staining. A control binding reaction was carried out using beads containing only GST.
The inventors investigated whether the observed interactions between DNA-PKcs and the individual Ku subunits were indirect and were being mediated by DNA and/or the Ku heterodimer present in the HeLa nuclear extract. EtBr was used in a final concentration of 0.2 mg/ml in order to address the potential involvement of DNA (EtBr disrupts protein-DNA interactions).

| effect of EtBr on interaction with DNA-PKcs in HeLa nuclear extract (DNA-PKcs) | Substance | effect of DNA or EtBr on binding of purified DNA-PKcs (purified DNA-PKcs) | effect of DNA or EtBr on binding of purified DNA-PKcs (purified DNA-PKcs; listed as Ku70) | salt dependence of interaction with homogeneous DNA-PKcs (purified DNA-PKcs) | interaction with purified DNA-PKcs (purified DNA-PKcs) | proteins retrieved from crude HeLa nuclear extract (DNA-PKcs) |
| --- | --- | --- | --- | --- | --- | --- |
| essentially abolished by EtBr treatment | GST-Ku70: full length human Ku70 fused to glutathione S-transferase, expressed in E. coli | no affect | no stimulation of binding was observed in the presence of DNA | at lower but not at higher ionic strengths, there is an interaction | very little interaction | DNA-PKcs is the only protein that is retrieved |
| unaffected by EtBr | GST-Ku80: full length human Ku80 fused to glutathione S-transferase, expressed in E. coli | not affected by EtBr or by sheared genomic DNA; also recorded: no affect |  | still easily detectable at 150 mM KCl | interacts efficiently with purified DNA-PKcs | DNA-PKcs is the only protein that is retrieved |
